Assays:
Type in all cases: biochemical
[1] = HTP-analysis of yeast culture supernatants, no challenge (MUGal hydrolysis); settings: activity of the variant/activity of WT GLA (SEQ ID NO: 5), yeast supernatant
How it was run: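 GLA variants were expressed in INVSc1 yeast grown in SD-Ura broth with glucose at 30° C., and culture supernatants were collected after 66-84 h. Supernatant was mixed with McIlvaine buffer pH 4.8 and MUGal (2 mM stock) in 50 mM citrate, 200 mM KCl, pH 4.6, incubated at 37° C. for 30-180 minutes, then quenched with sodium carbonate.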

[2] = HTP-analysis of supernatants pretreated with acid (MUGal hydrolysis); settings: challenge at pH 4.2; activity of the variant/activity of WT GLA (SEQ ID NO: 5); yeast supernatant
How it was run: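 Yeast INVSc1 supernatant, GLA variants; acid challenge: McIlvaine pH 3.3-4.3, 37° C., 1-3 h. Assay: MUGal in McIlvaine pH 4.8 plus citrate pH 4.3, 37° C., 30-180 min, Na2CO3 stop, Ex 355/Em 448 nm.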

[3] = HTP-analysis of supernatants pretreated with base (MUGal hydrolysis); settings: challenge at pH 7.1; activity of the variant/activity of WT GLA (SEQ ID NO: 5); yeast supernatant
How it was run: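 Fluorescence of released 4-MU (Ex 355 nm, Em 448 nm) after carbonate quench reports MUGal hydrolysis by GLA variants secreted from INVSc1 yeast. Before the acidic (pH 4.3-4.8) 30-180 min reaction at 37° C, supernatants had been pre-incubated at pH 7.0-9.7 for 1-18 h at 37° C.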

| Molecule | Relative Activity of GLA Variants After No Challenge (NC) [1] | Relative Activity of GLA Variants After Challenge at pH 4.2 [2] | Relative Activity of GLA Variants After Challenge at pH 7.1 [3] |
| --- | --- | --- | --- |
| 128 (protein, Synthetic Polypeptide sequence of Variant No. 128 of mature Human GLA) LDNGLARTPTMGWLHWERFMCNLDCQEEPDSCISEKLFMEMAELMVSEGWKDAGYEYLCIDDCWMAPQRDSEGRLQADPQRFPHGIRQLANYVHSKGLKLGIYADVGNKTCAGFPGSFGYYDIDAQTFADWGVDLLKFDGCYCDSLENLADGYKHMSLALNRTGRSIVYSCEWPLYMWPFQKPNYTEIRQYCNHWRNFADIDDSWKSIKSILDWTSFNQERIVDVAGPGGWNDPDMLVIGNFGLSWNQQVTQMALWAIMAAPLFMSNDLRHISPQAKALLQDKDVIAINQDPLGKQGYQLRQGDNFEVWERPLSGLAWAVAMINRQEIGGPRSYTIAVASLGKGVACNPACFITQLLPVKRKLGFYEWTSRLRSHINPTGTVLLQLENTTQMSKDLLL | + (+ = 0.5 to 1.5 relative activity over WT GLA (SEQ ID NO: 5)) | + (+ = 0.5 to 1.5 relative activity over WT GLA (SEQ ID NO: 5)) | + (+ = 0.5 to 1.5 relative activity over WT GLA (SEQ ID NO: 5)) |
| 129 (protein, Synthetic Polypeptide sequence of Variant No. 129 of mature Human GLA) LDNGLARTPTMGWLHWERFMCNLDCQEEPDSCISEKLFMEMAELMVSEGWKDAGYEYLCIDDCWMAPQRDSEGRLQADPQRFPHGIRQLANYVHSKGLKLGIYADVGNKTCAGFPGSFGYYDIDAQTFADWGVDLLKFDGCYCDSLENLADGYKHMSLALNRTGRSIVYSCEWPLYMWPFQKPNYTEIRQYCNHWRNFADIDDSWKSIKSILDWTSFNQERIVDVAGPGGWNDPDMLVIGNFGLSWNQQVTQMALWAIMAAPLFMSNDLRHISPQAKALLQDKDVIAINQDPLGKQGYQLRQGDNFEVWERPLSGLAWAVAMINRQEIGGPRSYTIAVASLGKGVACNPACFITQLLPVKRKLGFYEWTSRLRSHINPTGTVLLQLENTMQGSKDLLL | + (+ = 0.5 to 1.5 relative activity over WT GLA (SEQ ID NO: 5)) | ++ (++ = >1.5 to 2.5 relative activity over WT GLA (SEQ ID NO: 5)) | ++ (++ = >1.5 to 2.5 relative activity over WT GLA (SEQ ID NO: 5)) |
| 132 (protein, Synthetic Polypeptide sequence of Variant No. 132 of mature Human GLA) LDNGLARTPTMGWLHWERFMCNLDCQEEPDSCISEKLFYEMAELMVSEGWKDAGYEYLCIDDCWMAPQRDSEGRLQADPQRFPHGIRQLANYVHSKGLKLGIYADVGNKTCAGFPGSFGYYDIDAQTFADWGVDLLKFDGCYCDSLENLADGYKHMSLALNRTGRSIVYSCEWPLYMWPFQKPNYTEIRQYCNHWRNFADIDDSWKSIKSILDWTSFNQERIVDVAGPGGWNDPDMLVIGNFGLSWNQQVTQMALWAIMAAPLFMSNDLRHISPQAKALLQDKDVIAINQDPLGKQGYQLRQGDNFEVWERPLSGLAWAVAMINRQEIGGPRSYTIAVASLGKGVACNPACFITQLLPVKRKLGFYEWTSRLRSHINPTGTVLLQLENTMQMSKDLLL | + (+ = 0.5 to 1.5 relative activity over WT GLA (SEQ ID NO: 5)) | + (+ = 0.5 to 1.5 relative activity over WT GLA (SEQ ID NO: 5)) | + (+ = 0.5 to 1.5 relative activity over WT GLA (SEQ ID NO: 5)) |
| 134 (protein, Synthetic Polypeptide sequence of Variant No. 134 of mature Human GLA) LDNGLARTPTMGWLHWERFMCNLDCQEEPDSCISEKLFMEMAELMVSEGWKDAGYEYLCIDDCWMAPQRDSEGRLQADPQRFPHGIRQLAQYVHSKGLKLGIYADVGNKTCAGFPGSFGYYDIDAQTFADWGVDLLKFDGCYCDSLENLADGYKHMSLALNRTGRSIVYSCEWPLYMWPFQKPNYTEIRQYCNHWRNFADIDDSWKSIKSILDWTSFNQERIVDVAGPGGWNDPDMLVIGNFGLSWNQQVTQMALWAIMAAPLFMSNDLRHISPQAKALLQDKDVIAINQDPLGKQGYQLRQGDNFEVWERPLSGLAWAVAMINRQEIGGPRSYTIAVASLGKGVACNPACFITQLLPVKRKLGFYEWTSRLRSHINPTGTVLLQLENTMQMSKDLLL | + (+ = 0.5 to 1.5 relative activity over WT GLA (SEQ ID NO: 5)) | + (+ = 0.5 to 1.5 relative activity over WT GLA (SEQ ID NO: 5)) | + (+ = 0.5 to 1.5 relative activity over WT GLA (SEQ ID NO: 5)) |
| 133 (protein, Synthetic Polypeptide sequence of Variant No. 133 of mature Human GLA) LDNGLARTPTMGWLHWERFMCNLDCQEEPDSCISEKLFMEMAELMVSEGWKDAGYEYLCIDDCWMAPQRDSEGRLQADPQRFPHGIRQLANYVHSKGLKLGIYADVGNKTCAGFPGSFGYYDIDAQTFADWGVDLLKFDGCYCDSLENLADGYKHMSLALNRTGRSIVYSCEWPLYMWPFQKPNYTEIRQYCNHWRNFADIDDSWKSIKSILDWTSFNQERIVDVAGPGGWNDPDMLVIGNFGLSWNQQVTQMALWAIMAAPLFMSNDLRHISPQAKALLQDKDVIAINQDPLGKQGYQLRQGDNFEVWERPLSGLAWAVAMINRQEIGGPRSYTIAVASLGKGVACNPACFITQLLPVKRKLGFYEWTSRLRSHINPTGTVLLQLERTMQMSKDLLL | + (+ = 0.5 to 1.5 relative activity over WT GLA (SEQ ID NO: 5)) | + (+ = 0.5 to 1.5 relative activity over WT GLA (SEQ ID NO: 5)) | + (+ = 0.5 to 1.5 relative activity over WT GLA (SEQ ID NO: 5)) |
| 36 (protein, Synthetic Polypeptide sequence of Variant No. 36 of mature Human GLA) LDNGLARTPTMGWLHWERFMCNLDCQEEPDSCISEKLFMEMAELMVSEGWKDAGYEYLCIDDCWMAPQRDSEGRLQADPQRFPHGIRQLANYVHSKGLKLGIYADVGNKTCAGFPGSFGYYDIDAQTFADWGVDLLKFDGCYCDSLENLADGYKHMSLALNRTGRSIVYSCEWPLYMWPFQKPNYTEIRQYCNHWRNFADIDDSWKSIKSILDWTSFNQERIVDVAGPGGWNDPDMLVIGNFGLSWNQQVTQMALWAIMAAPLFMSNDLRHISPQAKALLQDKDVIAINQDPLGKQGYQLRQGDNFEVWERPLSGLAWAVAMINRQEIGGPRSYTIAVASLGKGVACNPGCFITQLLPVKRKLGFYEWTSRLRSHINPTGTVLLQLENTMQMSKDLLL | + (+ = 0.5 to 1.5 relative activity over WT GLA (SEQ ID NO: 5)) | ++ (++ = >1.5 to 2.5 relative activity over WT GLA (SEQ ID NO: 5)) | ++ (++ = >1.5 to 2.5 relative activity over WT GLA (SEQ ID NO: 5)) |
| 130 (protein, Synthetic Polypeptide sequence of Variant No. 130 of mature Human GLA) LDNGLARTPTMGWLHWERFMCNLDCQEEPDSCISEKLFMEMAELMVSEGWKDAGYEYLCIDDCWMAPQRDSEGRLQADPQRFPHGIRQLANYVHSKGLKLGIYADVGNKTCAGFPGSFGYYDIDAQTFADWGVDLLKFDGCYCDSLENLADGYKHMSLALNRTGRSIVYSCEWPLYMWPFQKPNYTEIRQYCNHWRNFADIDDSWKSIKSILDWTSFNQERIVDVAGPGGWNDPDMLVIGNFGLSWNQQVTQMALWAIMAAPLFMSNDLRHISPQAKALLQDKDVIAINQDPLGKQGYQLRQGDNFEVWERPLSGLAWAVAMINRQEIGGPRSYTIAVASLGKGVACNPACFITQLLPVKRKLGFYEWTSRLRSHINPTGTVLLQLENTMQPSKDLLL | + (+ = 0.5 to 1.5 relative activity over WT GLA (SEQ ID NO: 5)) | ++ (++ = >1.5 to 2.5 relative activity over WT GLA (SEQ ID NO: 5)) | + (+ = 0.5 to 1.5 relative activity over WT GLA (SEQ ID NO: 5)) |
| 131 (protein, Synthetic Polypeptide sequence of Variant No. 131 of mature Human GLA) LDNGLARTPTMGWLHWERFMCNLDCQEEPDSCISEKLFMEMAELMVSEGWKDAGYEYLCIDDCWMAPQRDSEGRLQADPQRFPHGIRQLANYVHSKGLKLGIYADVGNKTCAGFPGSFGYYDIDAQTFADWGVDLLKFDGCYCDSLENLADGYKHMSLALNRTGRSIVYSCEWPLYMWPFQKPNYTEIRQYCNHWRNFADIDDSWKSIKSILDWTSFNQERIVDVAGPGGWNDPDMLVIGNFGLSWNQQVTQMALWAIMAAPLFMSNDLRHISPQAKALLQDKDVIAINQDPLGKQGYQLRQGDNFEVWERPLSGLAWAVAMINRQEIGGPRSYTIAVASLGKGVACNPACFITQLLPVKRKLGFYEWTSRLRSHINPTGTVLLQLENTMQSSKDLLL | ++ (++ = >1.5 to 2.5 relative activity over WT GLA (SEQ ID NO: 5)) | + (+ = 0.5 to 1.5 relative activity over WT GLA (SEQ ID NO: 5)) | ++ (++ = >1.5 to 2.5 relative activity over WT GLA (SEQ ID NO: 5)) |

Reference: patent US11278600B2, “Human alpha-galactosidase variants” (Codexis, Inc., priority 2014, dated 2022)
